Experimental data reported in patent publication US11357847B2, “Modified HSV gD protein and vaccine containing same” (KM Biologics Co., Ltd., priority 2017, dated 2022).
Residue numbers refer to the chain shown, from its start. Names and notes keep the numbering of the source.

Key:
[1] = Properties of produced gD variants (aggregates); type: physicochemical; settings: expressed and purified variant
Source text: Four gD1-275-based variants were produced. Since these were FR3-deficient variants, V231W mutations affecting FR3 were not investigated. […] Meanwhile, eight gD1-315-based variants were produced, and none of the variants were less than the original gD1-315 in both properties and expression level.

[2] = tested on: various anti-gD2 antibodies; test: Reactivity of gD variants with anti-gD2 antibodies (competitive ELISA); type: binding, human; settings: for Reactivity with anti-gD2 antibody 1 / Reactivity with anti-gD2 antibody 5 / Reactivity with anti-gD2 antibody 13 / Reactivity with anti-gD2 antibody 72 / Reactivity with anti-gD2 antibody 75 / Reactivity with anti-gD2 antibody 78 / Reactivity with anti-gD2 antibody 82: immobilized gD variant
Source text: Each anti-gD2 monoclonal antibody and each gD variant were expressed using an Expi293 expression system.

[3] = tested on: HSV-2 MS strain; test: Mouse infection-prevention test of modified gD (genital herpes infection model); type: in vivo, BALB/c mice; parameters: key to Determination (vs gD1-315) / Determination# (vs gD1-315): ++: minimum effective dose based on the Significant difference test in three-fold common ratio relative to gD1-315(WT) of two or more doses stronger; +: those of one dose stronger; ±: those of an equivalent value; settings: for Determination# (vs gD1-315): minimum effective dose relative to gD1-315(WT)
Experimental: Immunogenicity test of the modified gD antigen was performed using the wild-type gD antigen gD1-315 (WT) as a positive control and saline as a negative control. A predetermined amount of antigen was dissolved in saline for injection (saline) with MPLA (10 μg/mouse) and CpG (1 μg/mouse) and immunized to mice at a volume of 200 μL/mouse. BALB/c mice (5 weeks old, female) were used for the study and immunized subcutaneously in back at 2-week intervals for a total of 3 times (N=4 cases per group). Two weeks after the final immunization (third dose), blood was collected and serum was prepared for each individual. The prepared serum was serially diluted and assessed for neutralizing antibody-inducing activity against HSV-2 (50% plaque number-reducing activity).
An infection-prevention test in the preventive administration of modified gD antigen was performed using a mouse genital herpes infection model. Similar to the mouse immunogenicity test described above, mice were immunized with the number of N=10 cases per group. Depo-Provera was inoculated subcutaneously at 2 mg/mouse 6 days prior to viral inoculation to improve the multiplicity of infection upon viral inoculation 2 weeks after final immunization (third dose). 5×10^5 PFU/20 μL HSV-2 MS strain was inoculated transvaginally under anesthesia and observed for 21 days. Infection prevention ability was evaluated using survival time (survival rate) as index.
The infection model of the mouse genital herpes infection model was used to evaluate infection prevention ability of various modified gD in preventive administration. The number of animal cases in each group was set to n=10, and wild-type gD (gD1-315) was used as a positive control and saline was used as a negative control. The experiments were performed a total of four times (experiments 1-4) and four doses of 0.1 μg/mouse/time, 0.03 μg/mouse/time, 0.01 μg/mouse/time and 0.003 μg/mouse/time were set for all of the positive control, negative control, and subject modified gD antigen. Depo-Provera was inoculated subcutaneously at 2 mg/mouse 6 days prior to viral inoculation to improve the multiplicity of infection upon viral inoculation 2 weeks after final immunization (third dose). 5×10^5 PFU/20 HSV-2 MS strain was inoculated transvaginally under anesthesia and observed for 21 days. Infection prevention ability was evaluated using survival time (survival rate) as index. Mean values of those were plotted in the graph. A Significant difference test for the negative control group was performed by the Kaplan-Meier method, and those with a minimum effective dose based on the Significant difference test in three-fold common ratio relative to wild type gD of two or more doses stronger were determined to be “++”, those of one dose stronger were determined to be “+”, and those of an equivalent value were determined to be “±”.

[4] = Experiment 4, 0.003 μg/head/time
[5] = Experiment 4, 0.01 μg/head/time
[6] = Experiment 4, 0.03 μg/head/time
[7] = Experiment 3, 0.01 μg/head/time
[8] = Experiment 3, 0.03 μg/head/time
[9] = Experiment 3, fourth dose line, 0.03 μg/head/time

B1: gD1-275v3-55: gD1-275 with glycochain at SC-F, linked to T cell epitope peptide DP5 (protein)
chain: KYALADPSLKMADPNRFRGKNLPVLDQLTDPPGVKRVYHIQPSLEDPFQNASIPITVYYAVLERACRSVLLHAPSEAPQIVRGASDEARKHTYNLTIAWYRMGDNCAIPITVMEYTECPYNKSLGVCPIRTQPRWSYYDSFSAVSEDNLGFLMHAPAFETAGTYLRLVKINDWTEITQFILEHRARASCKYALPLRIPPAACLTSKAYQQGVTVDSIGMLPRFIPENQRTVALYSLKIAGWHGPKPPYTSTLLPPELSDTTNATQPELVPEDPEDGPGPGIAFWVRRRAQMAPKPLRIAFWVRRRAQMAPKPLRHHHHHH
modifications: left off: small tags and cut ends
In the case of B1, the “Properties of the variant (aggregates)” value [1] is reported as “presence of aggregates was confirmed”, the “Reactivity with anti-gD2 antibody 1” value [2] is reported as “− ((−): less than 30%)” and the “Reactivity with anti-gD2 antibody 5” value [2] is reported as “− ((−): less than 30%)”. The “Reactivity with anti-gD2 antibody 13” value [2] was “− ((−): less than 30%)”, the “Reactivity with anti-gD2 antibody 72” value [2] was “− ((−): less than 30%)” and the “Reactivity with anti-gD2 antibody 75” value [2] was “− ((−): less than 30%)”. The “Reactivity with anti-gD2 antibody 78” value [2] was “− ((−): less than 30%)”, the “Reactivity with anti-gD2 antibody 82” value [2] was “+ ((+): 70% or more)” and the “Mean survival time” value [3, 4] was 7 days. For the same molecule, the “Significant difference test (vs saline)” value [3, 4] was “N.S”, the “Mean survival time” value [3, 5] was 7.5 days and the “Significant difference test (vs saline)” value [3, 5] was “N.S”. For the same molecule, the “Mean survival time” value [3, 6] was over 21 days, the “Significant difference test (vs saline)” value [3, 6] was “** (** 0.001 = < p < 0.01)” and the “Mean survival time” value ([3]; Experiment 4, 0.1 μg/head/time) was over 21 days. The “Significant difference test (vs saline)” value ([3]; Experiment 4, 0.1 μg/head/time) was “** (** 0.001 = < p < 0.01)” and the “Determination# (vs gD1-315)” value ([3]; Experiment 4) was “+”.

B2: gD1-275v3: gD1-275 with glycochain at P50 (SC-F) (protein)
chain: KYALADPSLKMADPNRFRGKNLPVLDQLTDPPGVKRVYHIQPSLEDPFQNASIPITVYYAVLERACRSVLLHAPSEAPQIVRGASDEARKHTYNLTIAWYRMGDNCAIPITVMEYTECPYNKSLGVCPIRTQPRWSYYDSFSAVSEDNLGFLMHAPAFETAGTYLRLVKINDWTEITQFILEHRARASCKYALPLRIPPAACLTSKAYQQGVTVDSIGMLPRFIPENQRTVALYSLKIAGWHGPKPPYTSTLLPPELSDTTNATQPELVPEDPEDHHHHHH
For B2, the “Properties of the variant (aggregates)” value [1] was “no change in properties”, the “Reactivity with anti-gD2 antibody 1” value [2] was “− ((−): less than 30%)” and the “Reactivity with anti-gD2 antibody 5” value [2] was “− ((−): less than 30%)”. The “Reactivity with anti-gD2 antibody 13” value [2] was “− ((−): less than 30%)”, the “Reactivity with anti-gD2 antibody 72” value [2] was “− ((−): less than 30%)” and the “Reactivity with anti-gD2 antibody 75” value [2] was “− ((−): less than 30%)”. The “Reactivity with anti-gD2 antibody 78” value [2] was “− ((−): less than 30%)” and the “Reactivity with anti-gD2 antibody 82” value [2] was “+ ((+): 70% or more)”.

B3: gD1-275v5: gD1-275 with glycochains at R186 (SC-A) and P50 (SC-F) (protein)
chain: B2 chain with R186N
For B3, the “Properties of the variant (aggregates)” value [1] was “no change in properties”, the “Relative reactivity with antibody No. 82 (gD1-315 wild-type set to 1)” value ([2]; FIG. 13) was “substantially similar reactivity” and the “Reactivity with anti-gD2 antibody 1” value [2] was “− ((−): less than 30%)”. The “Reactivity with anti-gD2 antibody 5” value [2] was “− ((−): less than 30%)”, the “Reactivity with anti-gD2 antibody 13” value [2] was “− ((−): less than 30%)” and the “Reactivity with anti-gD2 antibody 72” value [2] was “+ ((+): 70% or more)”. For the same molecule, the “Reactivity with anti-gD2 antibody 75” value [2] was “− ((−): less than 30%)”, the “Reactivity with anti-gD2 antibody 78” value [2] was “− ((−): less than 30%)” and the “Reactivity with anti-gD2 antibody 82” value [2] was “+ ((+): 70% or more)”.

B4: gD1-315v3V: gD1-315 with glycochain at SC-F and V231W (protein)
chain: KYALADPSLKMADPNRFRGKNLPVLDQLTDPPGVKRVYHIQPSLEDPFQNASIPITVYYAVLERACRSVLLHAPSEAPQIVRGASDEARKHTYNLTIAWYRMGDNCAIPITVMEYTECPYNKSLGVCPIRTQPRWSYYDSFSAVSEDNLGFLMHAPAFETAGTYLRLVKINDWTEITQFILEHRARASCKYALPLRIPPAACLTSKAYQQGVTVDSIGMLPRFIPENQRTWALYSLKIAGWHGPKPPYTSTLLPPELSDTTNATQPELVPEDPEDSALLEDPAGTVSSQIPPNWHIPSIQDVAPHHAPAAPSNPGHHHHHH
For B4, the “Reactivity with anti-gD2 antibody 1” value [2] was “+ ((+): 70% or more)”, the “Reactivity with anti-gD2 antibody 5” value [2] was “− ((−): less than 30%)” and the “Reactivity with anti-gD2 antibody 13” value [2] was “+ ((+): 70% or more)”. The “Reactivity with anti-gD2 antibody 72” value [2] was “− ((−): less than 30%)”, the “Reactivity with anti-gD2 antibody 75” value [2] was “− ((−): less than 30%)” and the “Reactivity with anti-gD2 antibody 78” value [2] was “− ((−): less than 30%)”. For the same molecule, the “Reactivity with anti-gD2 antibody 82” value [2] was “+ ((+): 70% or more)”, the “Mean survival time” value [3, 7] was 7 days and the “Significant difference test (vs saline)” value [3, 7] was “* (* 0.01 = < p < 0.05)”. For the same molecule, the “Mean survival time” value [3, 8] was over 21 days, the “Significant difference test (vs saline)” value [3, 8] was “*** (*** p < 0.001)” and the “Mean survival time” value ([3]; Experiment 3, 0.1 μg/head/time) was over 21 days. The “Significant difference test (vs saline)” value ([3]; Experiment 3, 0.1 μg/head/time) was “*** (*** p < 0.001)”, the “Mean survival time” value [3, 9] was 6 days and the “Significant difference test (vs saline)” value [3, 9] was “N.S”. For the same molecule, the “Determination# (vs gD1-315)” value ([3]; Experiment 3) was “±”.

B5: gD1-275 (protein)
chain: KYALADPSLKMADPNRFRGKNLPVLDQLTDPPGVKRVYHIQPSLEDPFQPPSIPITVYYAVLERACRSVLLHAPSEAPQIVRGASDEARKHTYNLTIAWYRMGDNCAIPITVMEYTECPYNKSLGVCPIRTQPRWSYYDSFSAVSEDNLGFLMHAPAFETAGTYLRLVKINDWTEITQFILEHRARASCKYALPLRIPPAACLTSKAYQQGVTVDSIGMLPRFIPENQRTVALYSLKIAGWHGPKPPYTSTLLPPELSDTTNATQPELVPEDPED
With B5 the “Properties of the variant (aggregates)” value [1] was “Aggregation”, the “Reactivity with anti-gD2 antibody 1” value [2] was “− ((−): less than 30%)” and the “Reactivity with anti-gD2 antibody 5” value [2] was “+ ((+): 70% or more)”. For the same molecule, the “Reactivity with anti-gD2 antibody 13” value [2] was “+ ((+): 70% or more)”, the “Reactivity with anti-gD2 antibody 72” value [2] was “+ ((+): 70% or more)” and the “Reactivity with anti-gD2 antibody 75” value [2] was “+ ((+): 70% or more)”. For the same molecule, the “Reactivity with anti-gD2 antibody 78” value [2] was “+ ((+): 70% or more)” and the “Reactivity with anti-gD2 antibody 82” value [2] was “+ ((+): 70% or more)”.
